Data reported in US20220073599A1 (Hoffmann-La Roche, published 2022).

T1: human VEGFA-121-His (human, UniProt P15692 181-395)
T1 construct: Prepared in-house; not shown: His tag
T1 sequence: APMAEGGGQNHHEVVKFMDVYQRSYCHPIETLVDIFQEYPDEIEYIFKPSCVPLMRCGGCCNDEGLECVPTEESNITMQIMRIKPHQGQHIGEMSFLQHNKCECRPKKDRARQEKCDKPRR

T2: human Ang2-RBD-muFc (human, UniProt O15123 275-496, limits assumed)
T2 construct: also called Human ANG2 (KinExA); not shown: murine Fc (muFc)
T2 sequence: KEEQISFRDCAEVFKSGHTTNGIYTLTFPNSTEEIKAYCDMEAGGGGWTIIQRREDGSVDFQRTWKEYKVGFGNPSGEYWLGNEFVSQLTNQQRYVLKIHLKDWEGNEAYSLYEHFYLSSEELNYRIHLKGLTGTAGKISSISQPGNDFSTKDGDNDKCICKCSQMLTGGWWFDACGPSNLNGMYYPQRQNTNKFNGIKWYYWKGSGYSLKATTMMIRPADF

T3: human Ang2-RBD (human, UniProt O15123 275-496, limits assumed)
T3 construct: also called Human ANG2 (SPR); Angiopoietin 2-RBD
T3 sequence: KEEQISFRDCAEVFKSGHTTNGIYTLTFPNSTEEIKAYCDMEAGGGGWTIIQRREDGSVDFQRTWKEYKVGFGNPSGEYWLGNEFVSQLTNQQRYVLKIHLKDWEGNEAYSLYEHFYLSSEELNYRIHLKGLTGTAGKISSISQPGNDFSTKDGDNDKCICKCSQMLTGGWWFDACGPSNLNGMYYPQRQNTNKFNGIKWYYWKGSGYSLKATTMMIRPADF


Columns and labels:
human VEGFA-165 = target: T4, human VEGFA-165 (human, UniProt P15692-4 27-191); assay: KinExA, VEGFA-165; set-up for VEGFA-165 not described
T4 construct: also called hVEGF-A165

human VEGFA-121-His [1] = target: T1, human VEGFA-121-His; assay: SPR, VEGF-A121-His captured by anti-His antibody, Fab injected, single cycle kinetics; marked outside of Biacore specification
Experimental: An anti-His capturing antibody (GE Healthcare 28995056) was immobilized to a Series S Sensor Chip C1 (GE Healthcare BR100535) using standard amine coupling chemistry resulting in a surface density of approximately 600 resonance units (RU). As running and dilution buffer, HBS-P+ (10 mM HEPES, 150 mM NaCl pH 7.4, 0.05% Surfactant P20) was used. […] A dilution series of the tested antibody (3.7-300 nM, 1:3 dilution) was successively injected for 60 s each, dissociation was monitored for 3600 s at a flow rate of 30 μl/min (single cycle kinetics). The surface was regenerated by injecting 10 mM Glycine pH 1.5 for 60 s at a flow of 5 μl/min. […] Curve fitting was performed using the 1:1 Langmuir binding model within the Biacore® evaluation software.

human Ang2-RBD-muFc = target: T2, human Ang2-RBD-muFc; assay: KinExA equilibrium titration in solution, constant Ang2-RBD-muFc
Experimental: All KinExA® experiments were performed at room temperature (RT) using PBS pH 7.4 with 0.01% BSA and 0.01% Tween® 20 (BioRad, #161-0781) as running buffer. […] A flow rate of 0.25 ml/min was used. A constant amount of Ang2-RBD-muFc (50 pM and in a second experiment 500 pM) was titrated with tested antibody by twofold serial dilution starting at 4 nM (concentration range 1.95 pM-4000 pM). Antigen-antibody complexes were incubated at RT for at least 8 h to allow equilibrium to be reached. Equilibrated mixtures were then drawn through a column of Anti-Ang2 antibody (MAB098) coupled beads in the KinExA® system at a volume of 750 μl for 50 pM constant Ang2 and at a volume of 188 μl for 500 pM constant Ang2 permitting unbound Ang2 to be captured by the beads without perturbing the equilibrium state of the solution. Bound Ang2 was detected using a second biotinylated anti-Ang2 antibody (BAM0981) with a concentration of 250 ng/ml and following by an injection of 250 ng/ml Streptavidin Alexa Fluor™ 647 conjugate in sample buffer. Each sample was measured in duplicates for all equilibrium experiments. The KD was obtained from non-linear regression analysis of the data using a one-site homogeneous binding model contained within the KinExA® software (Version 4.0.11) using the “standard analysis” method. […]

human Ang2-RBD = target: T3, human Ang2-RBD; assay: SPR, Fab captured by anti-Fab antibody, Ang2-RBD injected, 25 C, 1:1 fit
Experimental: An anti-Fab capturing antibody (GE Healthcare 28958325) was immobilized to a Series S Sensor Chip C1 (GE Healthcare BR100535) using standard amine coupling chemistry resulting in a surface density of approximately 800 resonance units (RU). As running and dilution buffer, HBS-P+ (10 mM HEPES, 150 mM NaCl pH 7.4, 0.05% Surfactant P20) was used, the temperature of measurement was 25° C. The tested antibody was captured by injecting a 50 nM solution for 60 sec at a flow of 5 μl/min. Association was measured by injection of human Ang2-RBD in various concentrations in solution for 180 sec at a flow of 30 μl/min (0.07 nM-50 nM, 1:3 dilution). The dissociation phase was monitored for up to 900 sec and triggered by switching from the sample solution to running buffer at a flow rate of 30 μl/min. The surface was regenerated by injection of 10 mM Glycine pH 2.1 for 60 s at a flow rate of 30 μl/min. Bulk refractive index differences were corrected by subtracting blank injections and by subtracting the response obtained from the reference flow cell without captured tested antibody. Curve fitting was performed using the 1:1 Langmuir binding model within the Biacore® evaluation software.

human VEGFA-121-His [2] = target: T1, human VEGFA-121-His; assay: KinExA equilibrium titration in solution, constant VEGFA-121-His
Experimental: All KinExA® experiments were performed at room temperature (RT) using PBS pH 7.4 with 0.01% BSA and 0.01% Tween® 20 (BioRad, #161-0781) as running buffer. […] A flow rate of 0.25 ml/min was used. […] Antigen-antibody complexes were incubated at RT for at least 8 h to allow equilibrium to be reached. […] Each sample was measured in duplicates for all equilibrium experiments. The KD was obtained from non-linear regression analysis of the data using a one-site homogeneous binding model contained within the KinExA® software (Version 4.0.11) using the “standard analysis” method. The software calculates the KD and determines the 95% confidence interval by fitting the data points to a theoretical KD curve. The 95% confidence interval is given as KD low and KD high.

| Kd (human VEGFA-165) | Kd (human VEGFA-121-His [1]) | koff (human VEGFA-121-His [1]) | Kd (human Ang2-RBD-muFc) | Kd (human Ang2-RBD) | koff (human Ang2-RBD) | kon (human Ang2-RBD) | Kd (human VEGFA-121-His [2]) | Binder |
| --- | --- | --- | --- | --- | --- | --- | --- | --- |
| ~0.002 nM | – | – | – | – | – | – | – | bispecific anti-VEGF-A/anti-ANG2 Fab fragment P1AD9820 (Fab, V domains shown, Bispecific Fab with two paratopes in one VH/VL pair; also called P1AD9820 Fab) VH: SEHLVESGGGLVKPGGSLRLSCATADFFEYDDMSWVRQAPGKGLEWVGSISPKGDHKYLNTKFIGRFTISRDDSKNTLYLQMNSLRAEDTAVYYCARDVGFFDWWGQGTLVTVSS VL: AIYMHQEPSSLSASVGDRVTITCHGSYWLNSEVAWYQQKPGKAPKLLIFDGDFKVYEVPSRFSGSGSHEDYTLTISSLQPEDFATYYCQQYRYHPYTFGHGTKVEIKR |
| – | 0.003 nM | 4.53e-06 s⁻¹ | 7.18 nM | 4.55 nM | 0.032 s⁻¹ | 7.03e+06 M⁻¹ s⁻¹ | 0.0109 nM | bispecific anti-VEGF-A/anti-ANG2 Fab fragment P1AA8906 (Fab, V domains shown, Bispecific Fab with two paratopes in one VH/VL pair (DutaFab); CH1 and Ckappa) VH: DFQLVESGGGLVKPGGSLRLSCAASYEFEYDDMSWVRQAPGKGLEWVGSISPKGGSTYYNTKFIGRFTISRDNSKNTLYLQMNSLRAEDTAVYYCARDVGFFDMWGQGTLVTVSS VL: AIYMHQEPSSLSASVGDRVTITCHGSYWLSNYLAWYQQKPGKAPKLLIFDARWLVHGVPSRFSGSGSHEDYTLTISSLQPEDFATYYCQQYRYHPYTFGHGTKVEIKR |
